Test results: patent publication US20250281538A1 (US Dept. of Health and Human Services, published 2025)

What was measured:
GPC3 protein [1] = target: GPC3 protein (UniProt P51654); assay: flow cytometry of Jurkat T cells expressing the construct, stained with 2.3ng/ml (0.04nM) GPC3-hFc
GPC3 protein [2] = target: GPC3 protein (UniProt P51654); assay: flow cytometry of Jurkat T cells expressing the construct, stained with 4.6ng/ml (0.08nM) GPC3-hFc
GPC2 antigen = target: T1, GPC2 antigen (UniProt Q8N158 24-553, limits assumed); assay: flow cytometry of Jurkat T cells expressing the construct, GPC2 binding read in the APC channel; GPC2 concentration not given
T1 construct: also called glypican-2
T1 sequence (looked up): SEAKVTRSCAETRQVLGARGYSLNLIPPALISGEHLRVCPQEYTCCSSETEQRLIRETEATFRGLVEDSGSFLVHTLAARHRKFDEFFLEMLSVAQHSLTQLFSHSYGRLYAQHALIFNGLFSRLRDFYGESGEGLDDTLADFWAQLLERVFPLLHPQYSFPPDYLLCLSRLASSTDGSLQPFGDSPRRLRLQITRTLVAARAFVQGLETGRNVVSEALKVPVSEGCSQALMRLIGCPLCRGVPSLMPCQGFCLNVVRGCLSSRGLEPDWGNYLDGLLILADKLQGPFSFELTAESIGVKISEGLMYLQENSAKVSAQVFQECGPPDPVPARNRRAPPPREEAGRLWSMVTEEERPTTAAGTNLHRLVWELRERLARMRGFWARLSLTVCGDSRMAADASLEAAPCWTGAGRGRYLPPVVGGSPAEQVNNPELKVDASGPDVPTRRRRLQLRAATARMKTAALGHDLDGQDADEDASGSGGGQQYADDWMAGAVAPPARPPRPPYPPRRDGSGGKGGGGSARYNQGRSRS
Text: Shown in FIG. 12 is a flow cytometric analysis of Jurkat T cells expressing CT3 and hCT3 CARs (CT3-CD28HTM and hCT3-1 CD28HTM, respectively) and AbTCRs+CSRs (ART-CT3-CT3 and ART-hCT3-1-hCT3-1, respectively). T cells expressing each of the constructs were capable of binding to GPC2 antigen. Mock T cells not expressing a CAR or AbTCR+CSR were included as a negative control.

B1: ART-HN3-HN3 AbTCR+CSR (protein)
chain 1: QVQLVQSGGGLVQPGGSLRLSCAASYFDFDSYEMSWVRQAPGKGLEWIGSIYHSGSTYYNPSLKSRVTISRDNSKNTLYLQMNTLRAEDTATYYCARVNMDRFDYWGQGTLVTVSSEQKLISEEDLAAATGAPPLGTQPDCNPTPENGEAPASTSPTQSLLVDSQASKTLPIPTSAPVALSSTGKPVLDAGPVLFWVILVLVVVVGSSAFLLCHRRACRKRIRQKLHLCYPVQTSQPKLELVDSRPRRSSTQLRSGASVTEPVAEERGLMSQPLMETCHSVGAAYLESLPLQDASPAGGPSSPRDLPEPRVSTEHTNNKIEKIYIMKADTVIVGTVKAELPEGRGLAGPAEPELEEELEADHTPHYPEQETEPPLGSCSDVMLSVEEEGKEDPLPTAASGK
chain 2: QVQLVQSGGGLVQPGGSLRLSCAASYFDFDSYEMSWVRQAPGKGLEWIGSIYHSGSTYYNPSLKSRVTISRDNSKNTLYLQMNTLRAEDTATYYCARVNMDRFDYWGQGTLVTVSSASTKGPSVFPLAPSSKSTSGGTAALGCLVKDYFPEPVTVSWNSGALTSGVHTFPAVLQSSGLYSLSSVVTVPSSSLGTQTYICNVNHKPSNTKVDKRVEPKSCEVKTDSTDHVKPKETENTKQPSKSCHKPKAIVHTEKVNMMSLTVLGLRMLFAKTVAVNFLLTAKLFFL
chain 3: QVQLVQSGGGLVQPGGSLRLSCAASYFDFDSYEMSWVRQAPGKGLEWIGSIYHSGSTYYNPSLKSRVTISRDNSKNTLYLQMNTLRAEDTATYYCARVNMDRFDYWGQGTLVTVSSRTVAAPSVFIFPPSDEQLKSGTASVVCLLNNFYPREAKVQWKVDNALQSGNSQESVTEQDSKDSTYSLSSTLTLSKADYEKHKVYACEVTHQGLSSPVTKSFNRGECPIKTDVITMDPKDNCSKDANDTLLLQLTNTSAYYMYLLLLLKSVVYFAIITCCLLRRTAFCCNGEKS
percent of cells in the binding-positive gate (GPC3 protein [1]): 56.9%
percent of cells in the binding-positive gate (GPC3 protein [2]): 70.6%

B2: CT3 CAR (CT3-CD28HTM) (other)
VH: EVQLQQSGPELVKPGASVKMSCKASRFTFTDYNIHWVKQSPGKTLEWIGYINPNNGDIFYKQKFNGKATLTINKSSNTAYMELRSLTSEDSAVYYCVRSSNIRYTFDRFFDVWGTGTTVTVSS
VL: ENVLTQSPAIMSASLGEKVTMSCRASSSVNYIYWYQQKSDASPKLWIYYTSNLAPGVPARFSGSGSGNSYSLTISSMEGEDAATYYCQQFSSSPSTFGTGTKLELK
notes: Only the CT3 VH and VL are tied to the antibody
percent of cells in the GPC2-binding-positive gate (GPC2 antigen): 41.9%

B3: hCT3 CAR (hCT3-1 CD28HTM) (other)
VH: QVQLVQSGAEVKKPGASVKVSCKASRFTFTDYNIHWVRQAPGQGLEWIGYINPNNGDIFYKQKFNGRVTLTADKSTSTAYMELSSLTSEDTAVYYCVRSSNIRYTFDRFFDVWGQGTLVTVSS
VL: DVVMTQSPLSLPVTPGEPASISCRASSSVNYIYWYLQKPGQSPQLWIYYTSNLAPGVPDRFSGSGSGTDFTLKISRVEAEDVGVYYCQQFSSSPSTFGQGTKLEIK
notes: only hCT3-1 VH and VL are tied to the antibody; also called hCT3-CD28HTM
percent of cells in the GPC2-binding-positive gate (GPC2 antigen): 26.5%

B4: ART-CT3-CT3 AbTCR+CSR (other)
chain 1: ENVLTQSPAIMSASLGEKVTMSCRASSSVNYIYWYQQKSDASPKLWIYYTSNLAPGVPARFSGSGSGNSYSLTISSMEGEDAATYYCQQFSSSPSTFGTGTKLELKRSRGGGGSGGGGSGGGGSLEMAEVQLQQSGPELVKPGASVKMSCKASRFTFTDYNIHWVKQSPGKTLEWIGYINPNNGDIFYKQKFNGKATLTINKSSNTAYMELRSLTSEDSAVYYCVRSSNIRYTFDRFFDVWGTGTTVTVSSEQKLISEEDLAAATGAPPLGTQPDCNPTPENGEAPASTSPTQSLLVDSQASKTLPIPTSAPVALSSTGKPVLDAGPVLFWVILVLVVVVGSSAFLLCHRRACRKRIRQKLHLCYPVQTSQPKLELVDSRPRRSSTQLRSGASVTEPVAEERGLMSQPLMETCHSVGAAYLESLPLQDASPAGGPSSPRDLPEPRVSTEHTNNKIEKIYIMKADTVIVGTVKAELPEGRGLAGPAEPELEEELEADHTPHYPEQETEPPLGSCSDVMLSVEEEGKEDPLPTAASGK
chain 2: EVQLQQSGPELVKPGASVKMSCKASRFTFTDYNIHWVKQSPGKTLEWIGYINPNNGDIFYKQKFNGKATLTINKSSNTAYMELRSLTSEDSAVYYCVRSSNIRYTFDRFFDVWGTGTTVTVSSASTKGPSVFPLAPSSKSTSGGTAALGCLVKDYFPEPVTVSWNSGALTSGVHTFPAVLQSSGLYSLSSVVTVPSSSLGTQTYICNVNHKPSNTKVDKRVEPKSCEVKTDSTDHVKPKETENTKQPSKSCHKPKAIVHTEKVNMMSLTVLGLRMLFAKTVAVNFLLTAKLFFL
chain 3: ENVLTQSPAIMSASLGEKVTMSCRASSSVNYIYWYQQKSDASPKLWIYYTSNLAPGVPARFSGSGSGNSYSLTISSMEGEDAATYYCQQFSSSPSTFGTGTKLELKRTVAAPSVFIFPPSDEQLKSGTASVVCLLNNFYPREAKVQWKVDNALQSGNSQESVTEQDSKDSTYSLSSTLTLSKADYEKHKVYACEVTHQGLSSPVTKSFNRGECPIKTDVITMDPKDNCSKDANDTLLLQLTNTSAYYMYLLLLLKSVVYFAIITCCLLRRTAFCCNGEKS
notes: AbTCR heterodimer and CSR are expressed together on one cell
percent of cells in the GPC2-binding-positive gate (GPC2 antigen): 57.3%

B5: ART-hCT3-1-hCT3-1 AbTCR+CSR (other)
chain 1: DVVMTQSPLSLPVTPGEPASISCRASSSVNYIYWYLQKPGQSPQLWIYYTSNLAPGVPDRFSGSGSGTDFTLKISRVEAEDVGVYYCQQFSSSPSTFGQGTKLEIKRSRGGGGSGGGGSGGGGSLEMAQVQLVQSGAEVKKPGASVKVSCKASRFTFTDYNIHWVRQAPGQGLEWIGYINPNNGDIFYKQKFNGRVTLTADKSTSTAYMELSSLTSEDTAVYYCVRSSNIRYTFDRFFDVWGQGTLVTVSSEQKLISEEDLAAATGAPPLGTQPDCNPTPENGEAPASTSPTQSLLVDSQASKTLPIPTSAPVALSSTGKPVLDAGPVLFWVILVLVVVVGSSAFLLCHRRACRKRIRQKLHLCYPVQTSQPKLELVDSRPRRSSTQLRSGASVTEPVAEERGLMSQPLMETCHSVGAAYLESLPLQDASPAGGPSSPRDLPEPRVSTEHTNNKIEKIYIMKADTVIVGTVKAELPEGRGLAGPAEPELEEELEADHTPHYPEQETEPPLGSCSDVMLSVEEEGKEDPLPTAASGK
chain 2: QVQLVQSGAEVKKPGASVKVSCKASRFTFTDYNIHWVRQAPGQGLEWIGYINPNNGDIFYKQKFNGRVTLTADKSTSTAYMELSSLTSEDTAVYYCVRSSNIRYTFDRFFDVWGQGTLVTVSSASTKGPSVFPLAPSSKSTSGGTAALGCLVKDYFPEPVTVSWNSGALTSGVHTFPAVLQSSGLYSLSSVVTVPSSSLGTQTYICNVNHKPSNTKVDKRVEPKSCEVKTDSTDHVKPKETENTKQPSKSCHKPKAIVHTEKVNMMSLTVLGLRMLFAKTVAVNFLLTAKLFFL
chain 3: DVVMTQSPLSLPVTPGEPASISCRASSSVNYIYWYLQKPGQSPQLWIYYTSNLAPGVPDRFSGSGSGTDFTLKISRVEAEDVGVYYCQQFSSSPSTFGQGTKLEIKRTVAAPSVFIFPPSDEQLKSGTASVVCLLNNFYPREAKVQWKVDNALQSGNSQESVTEQDSKDSTYSLSSTLTLSKADYEKHKVYACEVTHQGLSSPVTKSFNRGECPIKTDVITMDPKDNCSKDANDTLLLQLTNTSAYYMYLLLLLKSVVYFAIITCCLLRRTAFCCNGEKS
notes: also called ART-hCT3-hCT3; hCT3 AbTCR+CSR
percent of cells in the GPC2-binding-positive gate (GPC2 antigen): 62.4%
